The numbers were not newly measured in publication PMC8463877, which cites them from elsewhere.

In data set [1] the target is apoC-II fibrils (Homo sapiens) (UniProt P02655).
The target of data set [2] is Aβ42 fibrils Aβ1-42 (Homo sapiens) (UniProt P05067).
Chain of Aβ42 fibrils Aβ1-42 (Homo sapiens) (P05067 1-42): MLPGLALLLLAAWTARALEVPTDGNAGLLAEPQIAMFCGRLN

Chain of αB-crystallin (P02511 whole entry): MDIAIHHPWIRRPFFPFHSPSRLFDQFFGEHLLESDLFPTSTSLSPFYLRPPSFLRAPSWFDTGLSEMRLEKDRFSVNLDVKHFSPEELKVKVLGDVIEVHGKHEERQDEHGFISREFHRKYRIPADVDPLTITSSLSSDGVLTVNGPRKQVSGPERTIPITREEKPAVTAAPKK
Chain of apoC-II fibrils (Homo sapiens) (P02655 23-101): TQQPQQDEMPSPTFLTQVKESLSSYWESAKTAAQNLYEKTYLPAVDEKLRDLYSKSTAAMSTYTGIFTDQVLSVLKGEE

A word on the Kd: it is the constant that tells how readily two partners part at equilibrium. As to αB-crystallin (from UniProt P02511), the dissociation constant Kd is 5.4 µM in data set [1] and 2.1 µM in data set [2].
